Residue numbers refer to the chain shown, from its start. Numbers in names are those of the source.

Data on four molecules can be found in patent US12698495B2, “Engineered tryptophan decarboxylases and uses thereof for synthesizing tryptamine analogs” (priority 2022, dated 2026).

One test deals with serotonin receptor. The conditions noted are these: known from literature (ref. 43); cited from earlier work.
For test [1] the following is noted: cited from earlier work.
Test [2] in a line: PfTrpB variant activity and promiscuity. In kind it is biochemical, Pyrococcus furiosus.

For `CCOc1ccc2[nH]cc(CCN)c2c1` [5-OEt-tryptamine], the serotonin receptor activity entry with serotonin receptor is listed as “agonists”.

In the case of `COc1ccc2[nH]cc(CCN)c2c1` [5-OMe-tryptamine], in the test with serotonin receptor, the serotonin receptor activity entry is given as “agonists”.

B1: 2B9: engineered PfTrpB variant 2B9, SEQ ID NO:3 (protein, listed as Pyrococcus furiosus)
chain: MWFGEFGGQYVPETLVGPLKELEKAYKRFKDDEEFNRQLNYYLKTWAGRPTPLYYAKRLTEKIGGAKVYLKREDLVHGGAHKTNNAIGQALLAKLMGKTRLIAETGAGQHGVATAMAGALLGMKVDIYMGAEDVERQKMNVFRMKLLGANVIPVNSGSRTLKDAINEALRDWVATFEYTHYLIGSVVGPHPYPTIVRDFQSVIGREAKAQILEAEGQLPDVIVACVGGGSNAMGIFYPFVNDKKVKLVGVEAGGKGLESGKHSASLNAGQVGVSHGMLSYFLQDEEGQIKPSHSIAPGLDYPGVGPEHAYLKKIQRAEYVAVTDEEALKAFHELSRTEGIIPALESAHAVAYAMKLAKEMSRDEIIIVNLSGRGDKDLDIVLKASGNVLEHHHHHH
Consider B1, for which the “activity with a variety of substrate analogs” value in test [1] (75° C.) was “high activity”. In test [1] (lower temperatures than 75° C.), the “activity at lower temperatures” value is “activity decreases”.

B2: H275E (protein, listed as Pyrococcus furiosus)
chain: B1 chain with H275E
Regarding B2, the “activity and promiscuity of PfTrpB variant in SUMS” value in test [2] is recorded as “generally activated”. The “activity of PfTrpB mutant” value in test [2] (75° C.) is “activating”.
